The values below come from PMC10810270, “Molecular mechanism of specific DNA sequence recognition by NRF1” (Nucleic Acids Research, 2023).

Data set [1] deals with the molecule itself. The data set can be described thus: SEC-MALS; HPLC-MALS, WTC-015S5 column, 50 mM PBS and 150 mM NaCl, 0.5 mL/min; oligomeric state of NRF1 fragments without DNA.
Data set [2] has as its target T1, NRF1 DD-DBD (human, UniProt Q16656 54-284).
T1 sequence: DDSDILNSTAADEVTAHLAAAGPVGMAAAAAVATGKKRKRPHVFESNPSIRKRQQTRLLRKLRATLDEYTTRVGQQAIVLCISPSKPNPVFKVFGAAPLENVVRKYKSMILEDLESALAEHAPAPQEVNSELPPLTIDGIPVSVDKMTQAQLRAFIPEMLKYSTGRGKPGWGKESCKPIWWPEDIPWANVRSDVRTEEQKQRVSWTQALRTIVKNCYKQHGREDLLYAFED
Description: ITC; ITC: 20 mM Hepes pH 7.0, 150 mM NaCl, 25 C; protein 20-30 uM, dsDNA 500-600 uM. The settings on record: protein: recombinant, tags: N-terminal His6 removed by TEV (pET28-MHL), chain copies: 2, blunt.

For data set [3], the target named is T1, NRF1 DD-DBD. Description: ITC; mean of listed repeats 0.34 and 0.25; ITC: 20 mM Hepes pH 7.0, 150 mM NaCl, 25 C; protein 20-30 uM, dsDNA 500-600 uM. The conditions noted are these: protein: recombinant; tags: N-terminal His6 removed by TEV (pET28-MHL); chain copies: 2; blunt; self-complementary.
For data set [4], the target named is T2, NRF1 DBD (human, UniProt Q16656 177-284).
T2 sequence: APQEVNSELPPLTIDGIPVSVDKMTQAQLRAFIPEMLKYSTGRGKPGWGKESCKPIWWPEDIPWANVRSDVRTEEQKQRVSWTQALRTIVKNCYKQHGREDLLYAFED
The data set can be described thus: crystal structure; ITC: 20 mM Hepes pH 7.0, 150 mM NaCl, 25 C; protein 20-30 uM, dsDNA 500-600 uM. The settings on record: protein: recombinant; tags: N-terminal His6 removed by TEV (pET28-MHL); chain copies: 2; blunt; self-complementary.

In data set [5] the target is T2, NRF1 DBD. Description: ITC; ITC: 20 mM Hepes pH 7.0, 150 mM NaCl, 25 C; protein 20-30 uM, dsDNA 500-600 uM. The settings on record: protein: recombinant; tags: N-terminal His6 removed by TEV (pET28-MHL); chain copies: 2; blunt; self-complementary.
Data set [6] has as its target T3, NRF1 DD (human, UniProt Q16656 54-177).
T3 sequence: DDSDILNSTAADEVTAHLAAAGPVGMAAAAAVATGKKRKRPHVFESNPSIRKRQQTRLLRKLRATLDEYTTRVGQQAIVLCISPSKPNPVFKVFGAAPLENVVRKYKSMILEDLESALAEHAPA
The data set can be described thus: ITC; repeats 1.86, 1.78, 1.96; ITC: 20 mM Hepes pH 7.0, 150 mM NaCl, 25 C; protein 20-30 uM, dsDNA 500-600 uM. The conditions noted are these: protein: recombinant; tags: N-terminal His6 removed by TEV (pET28-MHL); chain copies: 2; blunt; self-complementary.

Data set [7] addresses T4, NRF1 N242A (human, UniProt Q16656 54-284, N242A).
T4 sequence: T1 sequence with N189A
The data set can be described thus: ITC; mean of repeats 1.40, 1.89, 1.89; ITC: 20 mM Hepes pH 7.0, 150 mM NaCl, 25 C; protein 20-30 uM, dsDNA 500-600 uM. The conditions noted are these: protein: recombinant; tags: N-terminal His6 removed by TEV; chain copies: 2; blunt; self-complementary.

In data set [8] the target is T5, NRF1 T109D (human, UniProt Q16656 54-284, T109D).
T5 sequence: T1 sequence with T56D
The data set can be described thus: ITC; mean of repeats 1.62, 1.87, 1.30; ITC: 20 mM Hepes pH 7.0, 150 mM NaCl, 25 C; protein 20-30 uM, dsDNA 500-600 uM. The conditions noted are these: protein: recombinant; tags: N-terminal His6 removed by TEV; chain copies: 2; blunt; self-complementary.

The target in data set [9] is T6, NRF1 T109A (human, UniProt Q16656 54-284, T109A).
T6 sequence: T1 sequence with T56A
The data set can be described thus: ITC; mean of repeats 2.80, 2.36, 1.72; ITC: 20 mM Hepes pH 7.0, 150 mM NaCl, 25 C; protein 20-30 uM, dsDNA 500-600 uM. The settings on record: protein: recombinant; tags: N-terminal His6 removed by TEV; chain copies: 2; blunt; self-complementary.

The target of data set [10] is T7, NRF1 R206A (human, UniProt Q16656 54-284, R206A).
T7 sequence: T1 sequence with R153A
Description: ITC; mean of repeats 5.60, 5.60, 4.40; ITC: 20 mM Hepes pH 7.0, 150 mM NaCl, 25 C; protein 20-30 uM, dsDNA 500-600 uM. The conditions noted are these: protein: recombinant; tags: N-terminal His6 removed by TEV; chain copies: 2; blunt; self-complementary.

Data set [11] concerns the target T8, NRF1 R244A (human, UniProt Q16656 54-284, R244A).
T8 sequence: T1 sequence with R191A
Description: ITC; mean of repeats 6.45, 8.62, 4.92; ITC: 20 mM Hepes pH 7.0, 150 mM NaCl, 25 C; protein 20-30 uM, dsDNA 500-600 uM. The settings on record: protein: recombinant; tags: N-terminal His6 removed by TEV; chain copies: 2; blunt; self-complementary.

Where a chain is given by its changes, count along the chain named.

B1: NRF1 (aa 54–177) (domain or fragment, human, UniProt Q16656 54-177, looked up)
chain: T3 sequence
notes: pET28-MHL vector; His6 tag removed with TEV protease; also called NRF1 DD; dimerization domain; source: E. coli BL21 (DE3), purified (Ni-NTA, anion exchange, gel filtration); not shown: His6, N-terminal, cleaved
B1: the “stoichiometry N” value in [1] was 2.

B2: A spacer (dsDNA)
DNA 1: ATGCGCAGCGCAT
DNA 2: ATGCGCTGCGCAT
B2: in data set [2], the dissociation constant Kd came to 1.62 ± 0.11 µM.

B3: GCGt (dsDNA)
DNA 1: ATGCGTATGCGCAT
DNA 2: ATGCGCATACGCAT
In the case of B3, the dissociation constant (Kd) in data set [2] was 1.25 ± 0.11 µM.

B4: GaGC (dsDNA)
DNA 1: ATGAGCATGCGCAT
DNA 2: ATGCGCATGCTCAT
Take B4: the Kd in [2] was found to be 1.38 ± 0.15 µM.

B5: ACACT spacer (dsDNA)
DNA 1: ATGCGCACACTGCGCAT
DNA 2: ATGCGCAGTGTGCGCAT
For the molecule B5, in data set [2], the Kd turned out to be 2.32 ± 0.48 µM.

B6: ACACTT spacer (dsDNA)
DNA 1: ATGCGCACACTTGCGCAT
DNA 2: ATGCGCAAGTGTGCGCAT
For B6, in data set [2], the Kd stood at 4.36 ± 0.29 µM.

B7: no spacer (dsDNA)
DNA 1: ATGCGCGCGCAT
DNA 2: ATGCGCGCGCAT
With B7, the dissociation constant Kd in [2] (self-complementary) is 0.57 ± 0.02 µM.

B8: CG central (dsDNA)
DNA 1: ATGCGCCGGCGCAT
DNA 2: ATGCGCCGGCGCAT
On to B8, for which, in data set [2] (self-complementary), the equilibrium dissociation constant (Kd) was 1.09 ± 0.06 µM.

B9: 20 bp DNA (dsDNA)
DNA 1: GCGATGCGCATGCGCATCGC
DNA 2: GCGATGCGCATGCGCATCGC
B9: in data set [3], the equilibrium dissociation constant (Kd) is approximately 0.3 µM.

B10: 16 bp DNA (dsDNA)
DNA 1: GGTGCGCATGCGCACC
DNA 2: GGTGCGCATGCGCACC
Regarding B10, the binding result in data set [4] is given as “binds”.

B11: ACT spacer (dsDNA)
DNA 1: ATGCGCACTGCGCAT
DNA 2: ATGCGCAGTGCGCAT
As to B11, in data set [2], the Kd was found to be 1.96 ± 0.27 µM.

B12: GCaC (dsDNA)
DNA 1: ATGCACATGCGCAT
DNA 2: ATGCGCATGTGCAT
Turning to B12, in [2], the equilibrium dissociation constant (Kd) is 0.66 ± 0.04 µM.

B13: GtGC (dsDNA)
DNA 1: ATGTGCATGCGCAT
DNA 2: ATGCGCATGCACAT
Turning to B13, in data set [2], the dissociation constant (Kd) came to 1.81 ± 0.25 µM.

B14: NRF1 (aa 98–177) (domain or fragment, human, UniProt Q16656 98-177, looked up)
chain: ESNPSIRKRQQTRLLRKLRATLDEYTTRVGQQAIVLCISPSKPNPVFKVFGAAPLENVVRKYKSMILEDLESALAEHAPA
notes: pET28-MHL vector; His6 tag removed with TEV protease; source: E. coli BL21 (DE3), purified (Ni-NTA, anion exchange, gel filtration); not shown: His6, N-terminal, cleaved
For B14, the “stoichiometry N” value in [1] is 2.

B15: ACACTCT spacer (dsDNA)
DNA 1: ATGCGCACACTCTGCGCAT
DNA 2: ATGCGCAGAGTGTGCGCAT
With B15, the Kd in [2] is 4.31 ± 0.28 µM.

B16: GCaC/GtGC (dsDNA)
DNA 1: ATGCACATGTGCAT
DNA 2: ATGCACATGTGCAT
As to B16, the Kd in data set [2] (self-complementary) came to 4.43 ± 0.55 µM.

B17: aCGC (dsDNA)
DNA 1: ATACGCATGCGCAT
DNA 2: ATGCGCATGCGTAT
On to B17, for which the Kd in data set [2] amounted to 1.27 ± 0.27 µM.

B18: tCGC (dsDNA)
DNA 1: ATTCGCATGCGCAT
DNA 2: ATGCGCATGCGAAT
On to B18, for which the dissociation constant Kd in [2] was 2.11 ± 0.8 µM.

B19: 14 bp AT central (WT) (dsDNA)
DNA 1: ATGCGCATGCGCAT
DNA 2: ATGCGCATGCGCAT
As to B19, the dissociation constant (Kd) in data set [2] (self-complementary) is 0.31 ± 0.05 µM; in data set [5], approximately 1.4 µM; in data set [6], approximately 1.8 µM; in data set [7], approximately 1.73 µM; in data set [8] it was approximately 1.6 µM; in data set [9], approximately 2.29 µM. Further, the equilibrium dissociation constant (Kd) is approximately 5.2 µM in data set [10] and approximately 6.66 µM in data set [11].

B20: GCGt/aCGC (dsDNA)
DNA 1: ATGCGTATACGCAT
DNA 2: ATGCGTATACGCAT
B20: the Kd in data set [2] (self-complementary) is 1.31 ± 0.18 µM.

B21: NRF1 (aa 54–284) (domain or fragment, human, UniProt Q16656 54-284, looked up)
chain: T1 sequence
notes: pET28-MHL vector; His6 tag removed with TEV protease; also called Nuclear respiratory factor 1; NRF1 dimer; source: E. coli BL21 (DE3), purified (Ni-NTA, anion exchange, gel filtration); not shown: His6, N-terminal, cleaved
Consider B21, for which the “stoichiometry N” value in data set [1] turned out to be 2.

B22: ACGT spacer (dsDNA)
DNA 1: ATGCGCACGTGCGCAT
DNA 2: ATGCGCACGTGCGCAT
In the case of B22, in data set [2] (self-complementary), the Kd worked out at 0.91 ± 0.04 µM.

B23: GCGa (dsDNA)
DNA 1: ATGCGAATGCGCAT
DNA 2: ATGCGCATTCGCAT
Consider B23, for which, in [2], the equilibrium dissociation constant (Kd) was 3.75 ± 0.69 µM.

B24: GCtC (dsDNA)
DNA 1: ATGCTCATGCGCAT
DNA 2: ATGCGCATGAGCAT
Take B24: in data set [2], the Kd was determined as 2.23 ± 0.17 µM.

B25: atta/GCGC (dsDNA)
DNA 1: ATATTAATGCGCAT
DNA 2: ATGCGCATTAATAT
Take B25: the dissociation constant Kd in data set [2] stood at 3.76 ± 0.23 µM.
